Source: a protein production outcome set (Wang et al. 2014)

Assay: label from the status in PepcDB records
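Note: failed if final PepcDB status was selected cloned or expressed and not failed if soluble or beyond.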

| Sequence | protein production |
| --- | --- |
| MKLSDFIKTEDFKKEKHVPVIEAPEKVKKDEKVQIVVTVGKEIPHPNTTEHHIRWIKVFFQPDGDPYVYEVGRYEFNAHGESVQGPNIGAVYTEPTVTTVVKLNRSGTIIALSYCNIHGLWESSQKITVEE | not failed |
| MQYANAYQAYQHNRVSVESPAKLIEMLYEGILRFSSQAKRCIENEDIEKKIYYINRVTDIFTELLNILDYEKGGEVAVYLTGLYTHQIKVLTQANVENDASKIDLVLNVARGLLEAWREIHSDELA | failed |
| MTLDTAAGHPTMDFADRCPLPYTSPTHLQAVAYLHGIVAADPDRARVLELGCMSGANLLPFATAYPQAQAVGIDLDEEKIAQGQMWVQQYGLTNLQLQAMDLGSLLDSDLGKFDYIIVHGVFGLISGEARSALLAYCHRHLSAKGVVCFSYSTYPGGKTEEILQDALNLHASLAETPEQQQASARAMLSYLSLGMSADNPQRAAITTLVEEAEKLGDVSLALNYLQGLNQPCYLLDFNALIAQEGLSYVGEIEPHTEIASHYGEQVDSLLRAICPTGNKVLKQQYLDFNVGRKRRFSLLVATERAGKLESEIDISRLDKLSWAGSFRRVMLNKGLASNAHVTNAGIQISTDHELTQQILDVLGNAWPASVSFKQLIFNTHFPEKENDKQEHENNIRESLYALLKQGISSIHFCVGECAYRKSEFSALRALPNCGDIYPTFNYWYESFTLPSEALGLKIPMSLLEEQKEGSLALLDELHHKGLMIGSALAWQRYFQKRLELAKDVNDVIHSINPLIMYSSNASGGGLFKASDVIKVEKSRKEFVNDPIDAKFKGQLYDLLQKQKYDEARSLAEELTVKQPNNLQNWIALERINFVTGDKDAAIFSLAKVISMHSNAWLVYSELASLLHNTYNYWEAINLAYRVIRCDGNIAVAWNVVALVYLKFENMAGAEVCIEKAMKLLPNDAAILNAMAMVLDKKSDVESAIEYYRQAVSNAPEDLSLYSNLLFALLHNAKIPASEIFAEHLLYGDVVEKRNGALAPVRYLQNKDPDRVLRIGFVSGDLYSHPVSKFLSPVWNDIDHQHFSLYAYSTSHHHDDVTRMLEKNSTVWRNVASSSDTELFDLIKRDEIDILFDLSGHTGDNRLSMFAMKPAPIQISWIGYPGTTGLKAMDYYLVMNHAPYPEVLAHQFTEKLLYVLFDRQFEPVVNGPEVNDLPALTNGYLTFASFNRPTKINDTVLSAWGKILVQLPTSKMIIGALPSLQTRDLIRKKLESQGVQPEQLIFRERVNIMNYLAMHQEIDVLLDTFPYTGGTTTNYALWMGVPTLTLAGETYAARQGVVNLGQAGLNEFIAHSEADYIDKAISCNNRLDELNQIRHSLRKKMEYDIDTSDATAATYFEQALRTVWKAYCDGQPPKSYSIGH | failed |
| MVAVRSAHLNTEGEFVPDAWIASLGIASQQSCERLAETWRYCEQQTQNQPDASLLLWRGIEMVEILSTLSMDNDSMRAALLFPLADANVVDEATLEAAFGKNIVDLVHGVRDMDAIRQLKATQNDSDASEQVDNIRRMLLAMVEDFRCVVIKLAERIAHLREVKDAPEEERVLAAKECTNIYAPLANRLGIGQLKWELEDFCFRYLHPDEYKKIAKLLHERRIDRAQYIDDFVKTLRDAMKEEGVQAEIYGRPKHIYSIWRKMQKKALSFDELFDVRAVRIVVERLQDCYGALGIVHTHYRHMPDEFDDYVANPKPNGYQSIHTVVLGPSGKTLEIQIRTRQMHEDAELGVAAHWKYKEGTAVGGRSGYEGRIAWLRKLLAWQEEVSDSNDVLDEVRSQVFDDRVYVFTPKGDVVDLPAGSTPLDFAYHIHSDIGHRCIGAKIGGRIVPFTYQLHMGDQIEIITQKQPNPSRDWLNPNLGYITTSRGRSKIQNWFRKQDRDKNILAGRQILDDELAHLGVSLKAAEKLLLPRYNVNSLDELLAAIGGGDVRLNQMVNFLQSQLKQPSAEELDREALRQLTQKTHQPPARSNNKDNGRVVVEGVGNLMHHIARCCQPIPGDEITGFITRGRGISIHRADCEQLDELRASSPERIVDAVWGESYSSGYSLVVRVIANDRSGLLRDITTILANEKVNVLGVASRSDTKQQLATIDMDIEIYNLQVLGRVLAKLNQLPDVIDARRQQGA | failed |
| MLSFCPSCNNMLLITSGDSGVYTLACRSCPYEFPIEGIEIYDRKKLPRKEVDDVLGGGWDNVDQTKTQCPNYDTCGGESAYFFQLQIRSADEPMTTFYKCVNCGHRWKEN | failed |
| MICYKCGQDAGWNDKCPVCGADLSLFKRAIRISNSYYNDGLQKAQVRNLSGAIISLRQSLKFYKYNIQARNLLGLIYYEMGEMVDALSEWVISANYQPDDNLAKKYIDQIHNNRNQLETINQTIKKYNQALTYCKQDSKDLAVIQLRKVLSLNPKLVKGHQLLALLYLEEGHLDKAKKALRDAGKIDTDNTTTLRYLKEVNRRLKEKGTERKKKNDDLISYQSGNETIIMPKRFRESSMWANILYIIIGLVVGVAVTCFLVVPGIKSQAKTDAKKQLLSANDTISTNGQTISGLNDQIDKLKKELEDEKKKNDGVSDQISTYEALLNAYVYYTTNDVIKAGEALENINTSYLSDSAKQTYDTLNGSIADSYKEALYSQAYSSYSSGDYQSAIPTFQKLVGMDEAYRDGSAAYYLAQSFRKSGDLASAKPYYQYVVDNYAGTEKARTSKNYLAQEQQ | failed |
| SKLNERSVAHYALSDSPADHMGFLRTWGGPGTPPTPSGTGRRCWFVLKGNLLFSFESREGRAPLSLVVLEGCTVELAEAPVPEEFAFAICFDAPGVRPHLLAAEGPAAQEAWVKVLSRASFGYMRLVVRELESQLQDARQSLALQRRSSWKSVASRCKPQAPNHRAAGLENGHCLSKDSSPVGLVEEAGSRSAGWGLAEWELQGPASLLLGKGQSPVSPETSCFSTLHDWYGQEIVELRQCWQKRAQGSHSKCEEQDRP | not failed |
| KVDPSDFSDVLIAHTVMKPFPDAPTALYQIKAKGYETVLMTNHSRDLIQSNVINLDHEFDMIITAEDVQTYKPNQKFFDYVNDQLGNDVEKHVHVAVDEVKDLKPAQDAGWNVIKIDRKSEDAS | failed |
| MGHHHHHHSHSGNIRLETAAETQAFAEELGRHLEAGDVIILDGPLGAGKTTFTQGLARGLNVKGRVTSPTFVIAREHKSLSGGPSLVHVDAYRLIDDAAGATDPIGALDSLDLETELEDAVVVAEWGGGLVEQITDSYLLITFDRT | not failed |
| LLLLHGFTSHPVLTLGPLSERLKEAGWEVRQPALPGHGTRPEDLLKVRFQDWLLAAEEAYLELPEPRGVVGLSMGGLLAAHLAARHPTKALVALAPAFALKNPLAPYLHWLIPRFPGPPSIEDPELRKRNPNYPYFPTRAVLELLALMRKTPEVLPRVKARALVVEAGKDRVVKGVDRYFALLGSPRKDHLVFPESGHDLLLDRDREEVARAVRDWL | failed |
| MRELTSNEMNNVSGGDLASRLEASIVGSVAGFFAGSIWGGTRGGDGGGILGVGSIGQGVGMIYGGIAGAIGGAIGAFVIDKTLTYTYTTGFMNSLFSGTFAK | failed |
| MAMEKPVLWYIADPMCSWCWGFAPVIENIRQEYSAFLTVKIMPGGLRPGTNTPLLPEKRAQILHHWHSVHITTGQPFTFENALPEGFIYDTEPACRGVVSVSLIEPEKVFPFFAAIQRAFYVGQEDVAQLAILKKLAVDLGIPESRFTPVFQSDEAKQRTLAGFQRVAQWGISGFPALVVESGTDRYLITTGYRPIEALRQLLDTWLQQHGV | not failed |
| MKKFNIKSLTLLIVLLPLIVNANNIDSHLLEQNDIAKYVAQSDTVGSFFERFSALLNYPIVVSKQAAKKRISGEFDLSNPEEMLEKLTLLVGLIWYKDGNALYIYDSGELISKVILLENISLNYLIQYLKDANLYDHRYPIRGNISDKTFYISGPPALVELVANTATLLDKQVSSIGTDKVNFGVIKLKNTFVSDRTYNMRGEDIVIPGVATVVERLLNNGKALSNRQAQNDPMPPFNITQKVSEDSNDFSFSSVTNSSILEDVSLIAYPETNSILVKGNDQQIQIIRDIITQLDIAKRHIELSLWIIDIDKSELNNLGVNWQGTASFGDSFGASFNMSSSASISTLDGNKFIASVMALNQKKKANVVSRPVILTQENIPAIFDNNRTFYVSLVGERNSSLEHVTYGTLINVIPRFSSRGQIEMSLTIEDGTGNSQSNYNYNNENTSVLPEVGRTKISTIARVPQGKSLLIGGYTHETNSNEIISIPFLSSIPVIGNVFKYKTSNISNIVRVFLIQPREIKESSYYNTAEYKSLISEREIQKTTQIIPSETTLLEDEKSLVSYLNY | failed |
| MTFALGQRWISDTESDLGLGTVVAMDARTVTLMFAASEENRVYARNDAPVTRVTFNVGDVIDCQEGWSLKVEEVLEDEGLYTYFGTREDTQETAVVLREIFLSNQIRFNKPQDKLYAGQIDRMDNFVLRY | failed |
| MILTLLQNGDYETARTQALTELKNNSDNAELHYYAAWAHDALGKEDAAIPFYEKALQLGLPADSRKEAYIGLGSTYRITGQPEKSIRLFETALQEFPDNNALRTFSVMAKYNQGLEKEALEEALMLLTQTTSDEDILSYKKAIQFYAQDLDATFHLEHHHHHH | not failed |
| MIIQKIKQFFVGSERTIKAKKNIIASLLVKMLSIIISLLLVPVTLNYLNSYEYGVWLTLSSILVWINYFDIGLGNGLRNRLTEALAIGDYEKGRIYISTTFAILLILMLTIYLLYAFLQHFISWKSILNISTNHAFTDLNYLVLIVFAFFCISFVLKFVGIIYLAKQQPVINDLFGAIANLMSLIVIYILTLVTDGNLTYVAIVFSSAPAVVYLLAYPFTFYYKYPNLAPKISAINFHYAKGLLGLGFQFFIIQVSCLLMFATSNILIAQLCGPEEVTPYNIAYKYFSVITMGFTIVITPFWSAVTDALIKEDFLWIRKGIINMLKVWLFFLLCSLVMLFVASWVYSFWVNMSIPFYLSLLLFVYISIFNWNNMFAYFVNGMGKIRLQLYCSVISGGIFIPLAILLGQLWGLVGIIGSMCFSLLVSAVLMPIQLKLLLAKSATGIWNK | failed |
| MAQNPERRAALVNAAIEVLAREGARGLTFRAVDVEANVPKGTASNYFPSRDDLFDQVGKRIHERLGPDPSVVEESGRKPQNLELAIEYMQGLFGRITRDRTGYLALQELRLEAVRRPELRTTLTRTISENLKRDIGFHLDSGLPGDRSTVLMLYLAMNALIVEHLTLPGVLEGVDTERLVADLVTRAVATPDA | not failed |
| MNYKLTLHPGSNPVEEFTSIPHGVTSLDLSLNNLYSISTVELIQAFANTPASVTSLNLSGNSLGFKNSDELVQILAAIPANVTSLNLSGNFLSYKSSDELVKTLAAIPFTITVLDLGWNDFSSKSSSEFKQAFSNLPASITSLNLRGNDLGIKSSDELIQILAAIPANVNSLNLRGNNLASKNCAELAKFLASIPASVTSLDLSANLLGLKSYAELAYIFSSIPNHVVSLNLCLNCLHGPSLENLKLLKDSLKHLQTVYLDYDIVKNMSKEQCKALGAAFPNIQKIILVDKNGKEIHPSHSIPISNLIRELSGKADVPSLEHHHHHH | not failed |
| IEEVYEATLDAIQGALNCDRASILLFDEAGTMRFVAARGLSEHYQRAVDGHSPWITGANEPEPIFVENVDDAEFSRELKESIVGEGIAALGFFPLVTEGRLIGKFMTYYDRPHRFADSEIGMALTIARQLGFSIQRMRAEYARRQAEE | not failed |
| DHSLAIIEFDLSSRIIEVNQNYLDYFGYQRDEVIGQYHLMFCHPGYANSDEYQKIKTSLLAGQSLEGRFERIHKDGSRVWLAAIYQPVSGPDGSVTRIVKIAKNIT | failed |
| MSSYSNELLMLIFRSMLCKQVLIFFAYSGLYYLVTYFMDKKIQHQKQFLLKLGLVKLKKRNKTRWEKIRWRMQLCLIVSILVLVVSTFVLNPDDQYILLVIYVMKLATFTSFAIAFVDSLGPIKEIQQLIVGAQSSDTLDSDKKVLTVTIFKKIRWMLILYQVLKVPALIIILTLSVDY | failed |
| MKRCRRRTQAGIRINLCVQGREGLSSPTPIGPIVTSTQPDSRASSLTDDALQWTRLEVAFTAGIVGCLLFATWQLGDLLARDWLAGWVGESELREDLVYYGVAFTAALAALGGTTRSLAHAGRFRRTVGRSLLWYGALLLISASGMGAIEYLPEVAAGLFGAGVLIAAVYVLQQRYFTRERIRRRRLRNDNCPQCGSDLRPEAHHCSQCGRRMGEDCPECGGYLGRSDRYCADCGRERAEGAP | failed |
